Reference: the supplement of paper PMC12764529
± gives the half width of the 95% confidence interval.

Assays:
[1] = folding stability dG unfold (combined trypsin and chymotrypsin); higher = more stable
Summary of the method: (§1)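 Sequencing followed digestion of designed mini-proteins with trypsin and chymotrypsin, each at 11 concentrations in threefold dilutions together with a no-protease condition. The mini-proteins were under 80 residues, had no cysteine, sat in a PA-tagged cDNA display construct, and were kept only if AlphaFold2 dimer inter-PAE was above 15. From the counts, Bayesian fitting gave K50, and unfolding free energy was derived against a sequence-predicted unfolded-state K50 and a shared folded-state K50, per protease or combined.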

[2] = folding stability dG unfold from chymotrypsin proteolysis; higher = more stable
Summary of the method: as §1

[3] = folding stability dG unfold from trypsin proteolysis; higher = more stable
Summary of the method: as §1

Row | Sequence | folding stability dG unfold [1] [kcal/mol] | folding stability dG unfold [2] [kcal/mol] | folding stability dG unfold [3] [kcal/mol]
1 | SAGGSAGGSAMYKVTIEIPETGKIYTFTHPGTAEEALAAALPEIGVSKEKIKKITVTPTEESAGGSAGGSAG [r3_79_JUSTAS] | 0.994 ± 0.11 | 1.36 ± 0.11 | 0.312 ± 0.079
2 | SAGGSAGGSANVKLKIDLDPGYGYIKIKLEWEDPGTGNKQEMEITIPIPIPPPPPPPANDKKSAGGSAGGSA [r18_361_TrROS] | 1.93 ± 0.43 | 2.17 ± 0.11 | 1.12 ± 0.11
3 | SAGGSAGGSANWKEIDGTLPWGLRVKVWVSPGNGQLMIEIKPVPPPPPPKISPEDADKANADSAGGSAGGSA [r18_236_TrROS] | 3.39 ± 0.3 | 4.06 ± 0.13 | 2.31 ± 0.072
4 | SAGGSAGGSANWYIRIHSPNGQPIWFPMKIKNVTPKGGEIEFKMRNPNGREMPFRVEIFPLESAGGSAGGSA [r18_163_TrROS] | 0.981 ± 0.13 | 1.16 ± 0.22 | 0.752 ± 0.13
5 | SAGGSAGGSAPDVEVEPFTLPSGEEAVAFRLPDGSRVVLVGDKAVLFYKDGKVEEVPLEEILSAGGSAGGSA [r18_379_TrMRF] | 1.76 ± 0.13 | 1.78 ± 0.1 | 1.46 ± 0.042
6 | SAGGSAGGSAPLPPLTPEQVKALVEELKKKGYKVKKVTVVEVNGELYVFVEVDGKLYRIKVSAGGSAGGSAG [r3_395_TrROS_Hall] | 4.23 ± 0.064 | 4.47 ± 0.12 | 3.47 ± 0.069
7 | SAGGSAGGSAPLSLVIDFPSGPATITFLEDGTARITYTDDDKTETIPVADLLKIPADVDPRSAGGSAGGSAG [r3_256_TrMRF] | 0.507 ± 0.091 | 0.769 ± 0.12 | 0.0215 ± 0.099
8 | SAGGSAGGSAPMEIWVLIDSPEKAKDLAKEIAHELQQSGIKIKVEVEQPPNGYYLVKIRFDSAGGSAGGSAG [r3_211_TrROS] | 1.91 ± 0.22 | 1.81 ± 0.11 | 1.89 ± 0.14
9 | SAGGSAGGSAPPDEGQKWVPVTFPIEFPLPDGNKVKIPIDFWYPKEDGKPIAMQIEWWAKNSAGGSAGGSAG [r3_484_TrROS] | 0.72 ± 0.26 | 1.42 ± 0.22 | 0.373 ± 0.13
10 | SAGGSAGGSAPPNLKIEIDLQRHPEDDHIFLEMEATYPDDGKELKVMIMINPDDGKIGIMIMSAGGSAGGSA [r18_383_TrROS] | 3.34 ± 0.29 | 3.7 ± 0.29 | 2.76 ± 0.22
11 | SAGGSAGGSAPPRRVTIEYDPDSGMFKVKVPGGKEREIEGMPPNQIEEQAKDYGIDRVEIVSAGGSAGGSAG [r3_78_TrROS] | -0.0794 ± 0.18 | -0.286 ± 0.41 | 0.205 ± 0.16
12 | SAGGSAGGSAPPWTRVLGLGTFPPGVPDLPVEVPGGNVYALFTPTEDGSVQVLIVDLIPPLSAGGSAGGSAG [r3_464_TrMRF] | 0.773 ± 0.17 | 0.965 ± 0.21 | 0.472 ± 0.1
13 | SAGGSAGGSAPVLVLETESGVKFETLSLGPGPGALALIVTPDKPALALINLDDPNNIKILASAGGSAGGSAG [r3_450_TrMRF] | 1.18 ± 0.1 | 0.799 ± 0.11 | 1.55 ± 0.045
14 | SAGGSAGGSAQPIPIKIRIRMRDDGKPQTFTFEVPVKPGATESTILDKIMKKFPGFRHIEIESAGGSAGGSA [r18_195_TrROS] | 1.06 ± 0.085 | 0.961 ± 0.066 | 1.06 ± 0.035
15 | SAGGSAGGSARTLTLTFLTDSPEVAERFVRELREQKPLRVEASYRRLPDGRYLVTVTIHLDSAGGSAGGSAG [r3_273_TrMRF] | 4.64 ± 0.074 | 5.14 ± 0.14 | 3.21 ± 0.084
16 | SAGGSAGGSASIEVAAPPDATVTITTEITRKLPAGAKLPNGVVASADETLKETVTTTITVLGSAGGSAGGSA [r18_450_JUSTAS] | 0.364 ± 0.34 | 0.817 ± 0.047 | -0.27 ± 0.29
17 | SAGGSAGGSASITYENGYATITLKVPEGTVRIVDLATNEVIEIKPGDTVTIRVKIPPPPPESAGGSAGGSAG [r3_185_TrROS_Hall] | 1.73 ± 0.18 | 1.55 ± 0.059 | 2.31 ± 0.095
18 | SAGGSAGGSASKDDKIVKVKVFTIKLKPNLEGLPKKVRELLEKLGIKEIKITFVSVFNPEDFSAGGSAGGSA [r18_127_TrMRF] | 3.93 ± 0.17 | 4.34 ± 0.14 | 3.23 ± 0.2

Row | Sequence | folding stability dG unfold [1] [kcal/mol] | folding stability dG unfold [2] [kcal/mol] | folding stability dG unfold [3] [kcal/mol]
19 | SAGGSAGGSASKTIFIPAAVVAANPEKAVEFAEKVREEFEKKGLSVKTEVLPDGGIGIHVGSAGGSAGGSAG [r3_75_TrMRF] | 1.88 ± 0.087 | 1.61 ± 0.054 | 2.07 ± 0.071
20 | SAGGSAGGSASLDLSNATVLEEKTDPAKGLKTLTIKTPTSTLTITVEFDENGNPVKMTVFESAGGSAGGSAG [r3_5_JUSTAS] | 2.03 ± 0.048 | 2.2 ± 0.057 | 1.71 ± 0.037
21 | SAGGSAGGSASMAPPEVLSLPVEILEKSPDGSVTVLVPETGEVLTFPSPKVNVTPDGTLNLSSAGGSAGGSA [r18_89_JUSTAS] | 0.0808 ± 0.1 | -0.611 ± 0.16 | 0.416 ± 0.042
22 | SAGGSAGGSASMKKKKFVVKTEEEAEKVIAELKAKVPKGTEVEIYIKNEDGTLEKYAIIKISAGGSAGGSAG [r3_92_JUSTAS] | 3.13 ± 0.15 | 3.15 ± 0.047 | 2.91 ± 0.11
23 | SAGGSAGGSASSLEESLRAELPEGKPARIEVKVELEKTPNGKLKVKEVKVTVTLPNGPVVGSAGGSAGGSAG [r3_247_JUSTAS] | 1.24 ± 0.11 | 1.52 ± 0.072 | 0.572 ± 0.077
24 | SAGGSAGGSASSSPVTVETKTLEVEFKDDEIIVKEKVTTKYPNGKTTVTVTTTTIKVDPNLDSAGGSAGGSA [r18_291_JUSTAS] | 1.34 ± 0.12 | 1.55 ± 0.1 | 1.21 ± 0.1
25 | SAGGSAGGSASSSSSIKFLSEEEIKLPDGTPVKVKIYKDPSNNKEYLYLPESKVWLPISKISAGGSAGGSAG [r3_181_JUSTAS] | 1.67 ± 0.1 | 1.74 ± 0.037 | 1.41 ± 0.033
26 | SAGGSAGGSASTSEKIDYPNPPITVTRLPNGVVLVTYSDSNTTTVIPESVLATLPPTVPLFSAGGSAGGSAG [r3_256_JUSTAS] | 1.33 ± 0.043 | 1.12 ± 0.013 | 1.58 ± 0.048
27 | SAGGSAGGSASVEEIADKIQQLHGVDVEVTEPQPNSNGYPRWRIKVDLKGLPEKWMQELLNSAGGSAGGSAG [r3_40_TrROS] | 0.372 ± 0.11 | 0.217 ± 0.19 | 0.681 ± 0.17
28 | SAGGSAGGSASVKVEEKPTEIVITTKSPSPVITVETIPLSPDGVPVGKKTTTISLPPKDIILSAGGSAGGSA [r18_300_JUSTAS] | -0.719 ± 0.47 | -0.778 ± 0.15 | -0.3 ± 0.11
29 | SAGGSAGGSASVTTTTTPLPGDRTLTTTTYPDGTVKVTTYTVDTATGTVTSTSTTLSPATLTSAGGSAGGSA [r18_325_JUSTAS] | 0.856 ± 0.082 | 0.254 ± 0.12 | 1.15 ± 0.042
30 | SAGGSAGGSATIRIPWDKIKDALEEHDMTVTNIEPNPGGNPWVEIEVNGTPEQREKIQEALKSAGGSAGGSA [r18_175_TrROS] | 0.313 ± 0.12 | 0.255 ± 0.15 | 0.369 ± 0.045
31 | SAGGSAGGSATKTIKVKNADGETVELTVEKREDGSYKITLTFPDGTKKTFTIKPGEKIVIKPSAGGSAGGSA [r18_115_TrROS_Hall] | 3.9 ± 0.12 | 4.24 ± 0.098 | 2.42 ± 0.11
32 | SAGGSAGGSAVLDPSSPRPFEIVEVRRVRFEATVSFAGRPRKLEIEVDLLLVRDPSNGRIGSAGGSAGGSAG [r3_391_TrMRF] | 3.14 ± 0.15 | 3.54 ± 0.049 | 2.19 ± 0.04
33 | SAGGSAGGSAVPPDRPFTLPVLTLVRDPETGELYLARAEVTFLAPDPVITAARLEVFPPDADFSAGGSAGGS [r12_868_TrMRF] | 1.34 ± 0.09 | 1.69 ± 0.085 | 0.761 ± 0.058
34 | SAGGSAGGSAVSPDETVPIKIDGKEVTVTFNGSKATITFPDGTVIEGTVSTEGSKLTLDLNLSAGGSAGGSA [r18_172_JUSTAS] | 1.46 ± 0.13 | 1.26 ± 0.059 | 1.74 ± 0.053
35 | SAGGSAGGSAVYRTEDGRWVLVVEEVDGELTVHVYRRVDGRWELVETYPLEDLSPEARAALSAGGSAGGSAG [r3_241_TrROS_Hall] | 2.03 ± 0.053 | 2.33 ± 0.029 | 1.48 ± 0.025
36 | SAGGSAGGSAWGWISFNFEFLMFNPDGMFMPFRMQIDIRVEVKPEPKPKPKPKRDPNGKWKSAGGSAGGSAG [r3_252_TrROS] | 2.65 ± 0.15 | 2.8 ± 0.082 | 1.91 ± 0.034
